± gives the uncertainty stated by the source.

The nature of the series: amyloid nucleation score (Sup35N fusion, yeast selection) (log enrichment); library NNK3; higher = more nucleation; inactive = no reads after selection. An outline of the steps: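 Peptides of 20 random codons, each fused to Sup35N, were expressed in psi-negative yeast. Cells were induced with 100 μM copper sulfate for 24 hours and grown 7 days at 30°C on medium lacking adenine and uracil, and plasmid inserts before and after selection were Illumina-sequenced. Nucleation scores are DiMSum log enrichments of output over input reads, centred on the mode score of non-aggregating sequences, and sequences under 100 input reads were excluded.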
Take GLSNRTFSMISSLVRDTKRS: the amyloid nucleation score result is “inactive”.
With GLTWFKSIKVYVECLFRLSN the entry was “inactive”; with GLWRLSCKSYAWHF, “inactive”.
GLYSLYLFGTLYRQAQRGCE displayed an amyloid nucleation score of 0.52 ± 0.21.
The same measure for GMADKVDTCLWLMFY: “inactive”.
Consider GMDSIWHFDCNLS, for which the amyloid nucleation score was determined as 0.094 ± 0.81.
With GMGCTMLNYLMLWESFDTRP, the amyloid nucleation score stood at 0.586 ± 0.17.
In the case of GMLGTGYVYPCWL, the amyloid nucleation score result was “inactive”.
The same measure for GMNYNKMRTVLSRAPPRVRS: “inactive”; for GMRCEYMILTFGLSWKLLLI: “inactive”.
As for GMRFCVNVVCMRSLPSCAMK, the amyloid nucleation score was 1.43 ± 0.095.
As to GMTDNVPLGVKVKREMCQFA, the amyloid nucleation score result was “inactive”.
In turn, GNASMLWDNMSVVFLRGTLY displayed an amyloid nucleation score of 1.53 ± 0.074.
The same measure for GNGIFGLSPR: -1.04 ± 1.4; for GNISIWGFRNSWALDLIAGY: “inactive”.
For the substance GNLNGILFRISRQKEM, the amyloid nucleation score entry is “inactive”.
As to GNMKQWSIPPHIWTGQPPLM, the amyloid nucleation score result was “inactive”.
In the case of GNYIITLY, the amyloid nucleation score entry is “inactive”.
The same measure for GPDWYWNLNV: “inactive”.
The same measure for GPGQLYLLDM: “inactive”; for GPLESIFNQFAVIATVPRVW: “inactive”; for GPTNGFMSLNNWYQPLDQPV: “inactive”.
Consider GPTQIGNLMVTHKSQCSWFN, for which the amyloid nucleation score result was “inactive”.
The same measure for GPVLGSCIRRH: “inactive”; for GQCVLCMVNVLYLWAKYTNR: “inactive”; for GQDEPDCVG: 0.014 ± 0.52.
On to GQDRYLLAAYK, for which the amyloid nucleation score result is “inactive”.
As for GQFCCVCARIKLCRYSFNCY, the amyloid nucleation score is 2.45 ± 0.082.
Take GQTILC: the amyloid nucleation score entry is “inactive”.
GRCSQGSLGSAG: the amyloid nucleation score entry is “inactive”.
Consider GRDAVLI, for which the amyloid nucleation score was -0.785 ± 1.1.
In the case of GRDCICDLRMETIGDTFTGW, the amyloid nucleation score entry is “inactive”.
The same measure for GRDEQNHRFELVL: “inactive”; for GRDLLLRHTMSRGCQILLE: “inactive”.
The same measure for GRGHGEGTRLASSTIVIMHV: -0.395 ± 0.61; for GRGVDWMKQWNVHRKVLSSL: “inactive”; for GRHKFRMVVIRAVRVSVLEN: “inactive”.
With GRHSALRASFGL the entry was “inactive”; with GRILLYLNEFFSGRIISLHK, “inactive”.
Consider GRKDLKYIQSGDMQFQSSKW, for which the amyloid nucleation score came to 0.138 ± 1.
Turning to GRKKWGLSQSCDKLPMGHTS, the amyloid nucleation score result is “inactive”.
The same measure for GRLCYNSTNYLRHAASCLSM: “inactive”; for GRMEGNRFIDRLLGLHTSSP: “inactive”.
As for GRRTARKIKAGPYLCWKDGT, the amyloid nucleation score result was “inactive”.
Consider GRSMR, for which the amyloid nucleation score entry was “inactive”.
For the substance GSAECGCFASVYMNSMIKTV, the amyloid nucleation score entry is “inactive”.
Regarding GSCCNQG, the amyloid nucleation score result was “inactive”.
The same measure for GSCSIGSINIAFASSSIVYG: “inactive”; for GSFVVMF: “inactive”; for GSGLLE: “inactive”.
The same measure for GSHNAMLSAISADAGAWQRE: “inactive”.
The same measure for GSILWGVNMRFLNITAGCDY: “inactive”.
For the substance GSKCWPDLQMLIFEVVHHRA, the amyloid nucleation score entry is “inactive”.
For the substance GSMLTDIVCFKYKVWDPIIL, the amyloid nucleation score result is “inactive”.
The same measure for GSMMSCWRLAESWVVSKPPG: “inactive”; for GSQRLLALWNY: “inactive”.
The same measure for GSRKYRCVDIISFGEWAVLD: “inactive”; for GSRLHRFPNVKLDALFIYRW: “inactive”.
On to GSRSARMGVVRRGRRCSECY, for which the amyloid nucleation score entry was “inactive”.
Consider GSRVMMCPNT, for which the amyloid nucleation score entry is “inactive”.
Consider GSRYRWVTATTIMSCGYEQE, for which the amyloid nucleation score entry is “inactive”.
In turn, GSSVELVIQSS returned an amyloid nucleation score of 0.415 ± 0.28.
With GSVQAFCISKP the entry was “inactive”; with GSYWKHVWLRYTSHGLTPQW, “inactive”; with GTASRG, “inactive”.
The same measure for GTDSGTRSDNV: 0.328 ± 0.63.
With GTFLIFDKFKLS the entry was “inactive”; with GTFNIDVEVMVYRAGLFKHV, “inactive”; with GTIHLFYVFLLS, 0.205 ± 0.38.
As for GTIRQS, the amyloid nucleation score entry was “inactive”.
The same measure for GTRMNGSGFVKRAL: “inactive”.
The same measure for GTSAH: “inactive”; for GTTSFVLVCVCWSG: -0.409 ± 0.95; for GVIIRFWYWQDYAASLEYTC: “inactive”.
Substance GVMDDSDIL had an amyloid nucleation score of -0.492 ± 0.84.
With GVMMVMFARL, the amyloid nucleation score is 1.73 ± 0.091.
As to GVPLQWSSHAWGFFCWKTPW, the amyloid nucleation score result was “inactive”.
As for GVQAITGPLSVQDVYRWAKP, the amyloid nucleation score entry is “inactive”.
With GVRQVMVSSFRGNHNQKDTS the entry was “inactive”.
With GVTLGQLR the figure was 1.42 ± 0.15; with GVWKLVSRARNDSINLR, “inactive”.
As for GWHNGDKSYIFVYIRFGPMG, the amyloid nucleation score came out at 0.955 ± 0.16.
For GWIAYRGSDR, the amyloid nucleation score result was “inactive”.
The same measure for GWKAPLTLRRTLSALDFVLY: 0.371 ± 0.38; for GWLRAMKSIVNLF: “inactive”.
With GWMQGVLSELTTTLVMESAR the entry was “inactive”.
In the case of GWRSTYYECSGKSVFNAG, the amyloid nucleation score was -0.217 ± 0.8.
Substance GWTGVVFPVVSINSYQFTLF registered an amyloid nucleation score of 0.757 ± 0.33.
With GWVIDRLYGDDMSSILEL the entry was “inactive”; with GYAHLLMANLRWSSTRLA, “inactive”; with GYLFGVRVGCVYELAFDGCR, “inactive”.
As for GYLQGIYYGFTSCRKTSNQD, the amyloid nucleation score result was “inactive”.
The same measure for GYPVWYVDLFSAKVRMQ: “inactive”; for GYQLRRMMQTMRMKYRISSR: “inactive”.
With GYRSTCVRRFCECRCRDITA the entry was “inactive”.
The same measure for GYTIYGRVNPLVCPWVLVSE: “inactive”; for GYTNKLKWGHRITINAFVYR: -0.267 ± 0.68.
Take GYVPHVFFRILRLVRENMLE: the amyloid nucleation score result was “inactive”.
With GYYYNSMNFRWFIKMVVMVR the entry was “inactive”.
With HALNSCDEFGTVMELCSCGS, the amyloid nucleation score result was “inactive”.
The same measure for HARFTDQKTTPIWCTSVFKK: “inactive”; for HAVLFSVDVSYYLVPALLFR: “inactive”; for HCNEYSGNVVSRG: “inactive”.
With HCPVSIY the entry was “inactive”; with HCRAYITEPCKTWLY, “inactive”.
With HCSYEFNS, the amyloid nucleation score was -0.001 ± 0.4.
The same measure for HDCCDLGFSVDV: “inactive”; for HDCGYQITYGDNRIVYMCFV: “inactive”; for HDLNWNSMVRCRVNVSSVIV: “inactive”.
The same measure for HDYYFDTRDTIRVIL: “inactive”; for HEELQKIMIFSCMCYLQVLT: “inactive”.
With HELDSTTLCVFKPFPFHANL the entry was “inactive”; with HEWATWRDVLQVTTFFVLHM, “inactive”; with HFCLEYTLNVTMHAWTL, “inactive”.
Take HFKFLYDS: the amyloid nucleation score entry was “inactive”.
Turning to HFKVFT, the amyloid nucleation score result was “inactive”.
Take HFMMYMLQRVHELFILSKSM: the amyloid nucleation score entry was “inactive”.
With HFPSFFSIIPYRACNTACSA the figure was -0.984 ± 1.4; with HFSFLL, 1.37 ± 0.084.
For the substance HGDDCGDRDCGGRKECTGIA, the amyloid nucleation score entry is “inactive”.
Take HGLFTFVGCHCLCRN: the amyloid nucleation score is 0.939 ± 0.16.
Regarding HGSSCTRWAWALMNILDCVM, the amyloid nucleation score result was “inactive”.
The same measure for HGVWRLSYVVVGCPLTEVSP: “inactive”; for HICIQDCVD: “inactive”; for HINTWRLFRVGIPYVCVSDG: “inactive”.
With HIRSSDHGGSLTGLTCRDTD the entry was “inactive”; with HISWFIFLCGGSFDSVMLAN, “inactive”.
The same measure for HITNGRGWRHGRVWSSIWFF: “inactive”; for HKDLRYGWSSS: “inactive”; for HKDTSDFISHVRVSPWPNKG: “inactive”.
In the case of HKGFVSKIGNN, the amyloid nucleation score is -0.4 ± 0.9.
For the substance HKIWVVQQWGRRRQQ, the amyloid nucleation score entry was “inactive”.

Values taken from the supplement of paper PMC12042874.
